Assay results published in patent US20230121197A1, “ANTIBODIES SPECIFICALLY BINDING THE CARBOXYMETHYLATED CATALYTIC SUBUNIT OF PROTEIN PHOSPHATASE 2A” (Medizinische Universität Wien, priority 2020, published 2023).

Target: T1, carboxymethylated PP2Ac C-terminal peptide (ac-[…]-CH3) (Homo sapiens, UniProt P67775)
T1 construct: The following 11-mer peptides corresponding to the carboxymethylated or non-methylated carboxy-terminus of PP2A and PP4 catalytic subunits were used as antigens
Assay: Surface plasmon resonance (Biacore T200), steady state analysis, carboxymethylated PP2Ac peptide
Assay type: binding
Experimental: The differential affinity of anti-carboxymethylated PP2Ac antibodies, 7C10-C5 and 2A10, to carboxymethylated PP2A catalytic subunit versus noncarboxymethylated PP2A catalytic subunit was determined by surface plasmon resonance (SPR) on a Biacore T200 (GE Healthcare) at the Core Facility Biomolecular & Cellular Analysis (University of Natural Resources and Life Sciences Vienna BOKU). The affinity of 7C10-C5 for carboxymethylated and noncarboxymethylated catalytic subunit of PP4 (PP4c), a PP2A-related phosphatase, was also determined. […] The KD of the binding of 7C10-C5 (or 2A10) to non-carboxymethylated PP2Ac or PP4c could not be determined because at the highest analyte sample concentration (5000 nM) only very weak binding signals were detected indicating KD values of at least >5000 nM or higher. […]
SPR experiments were performed with the BiacoreT200 instrument (Cytiva). […] The sensorgrams obtained were analyzed with BiacoreT200 Evaluation Software (version 3.1). […]

B1: 7C10-C5: α-carboxymethylation specific mouse monoclonal IgG1 antibody from single clone hybridoma 7C10-C5 (DSM ACC3350) (antibody)
heavy: MYRMQLLSCIALSLALVTNSDVQLQESGPGLVKPSQSLSLTCSVTGYSITSGYYWNWIRQFPGNKLEWMGYISYDGSNNYNPSLKNRISITRDTSKNQFFLKLNSVTTEDTATYYCAGRFAYWGQGTLVTVSAAKTTAPSVYPLAPVCGDTTGSSVTLGCLVKGYFPEPVTLTWNSGSLSSGVHTFPAVLQSDLYTLSSSVTVTSSTWPSQSITCNVAHPASSTKVDKKIEPRGPTIKPCPPCKCPAPNLLGGPSVFIFPPKIKDVLMISLSPIVTCVVVDVSEDDPDVQISWFVNNVEVHTAQTQTHREDYNSTLRVVSALPIQHQDWMSGKEFKCKVNNKDLPAPIERTISKPKGSVRAPQVYVLPPPEEEMTKKQVTLTCMVTDFMPEDIYVEWTNNGKTELNYKNTEPVLDSDGSYFMYSKLRVEKKNWVERNSYSCSVVHEGLHNHHTTKSFSRTPGK
light: MDMRVPAQLLGLLLLWLSGARCDVLMTQTPLSLPVSLGDQASISCRSSQSIVHSNGNTYLEWYLQKPGQSPKLLIYKVSNRFSGVPDRFSGSGSGTDFTLKINRVEAEDLGVYYCFQGSHVPWTFGGGTKLEIKADAAPTVSIFPPSSEQLTSGGASVVCFLNNFYPKDINVKWKIDGSERQNGVLNSWTDQDSKDSTYSMSSTLTLTKDEYERHNSYTCEATHKTSTSPIVKSFNRNEC
modifications: Amino acid sequence of the recombinant 7C10-C5 heavy chain; Amino acid sequence of the recombinant 7C10-C5 light chain
Kd (SPR steady-state affinity model, carboxymethylated PP2Ac 11-mer peptide (SEQ ID NO:18)): ≤ 20 nM
Rmax (steady state analysis, PP2A Me peptide, 360 sec contact time, 40 μL/min): 25.14 RU
